Measurements as given in the DeepSol protein solubility set.

Test: soluble on expression in E. coli; label from the status in PepcDB or PDB records

Sequence	soluble on expression in E. coli
MGSDKIHHHHHHMTPLAPHEASQDESAIAERIASAMPRMTPIHRRMGEFVLANPFRAATMRIDELAQAVNASIATANRFAKALGFDGYPAMRAALVRGFEATLGPVERLRSAQEQEQEQGVRGAAWIDAVFDQAIENIENTRARLDATDVEAAVEAIVGARRVLILGAGSSAFLTGLMEHGLSVCHDNVQSLALLGGPTHAARRLYTADSRDLVIALAFPRYVKDTIELARRAAARGARVLGISDGPGSPLAPVASLNLYVKAQRRFAATSEAAVLTMIEALIDAVALRTHRSAKSAAEMTEFLLPWLMQPPAALPAANPSSSGPKKS	not soluble
MGSDKIHHHHHHMTQDLAQFAAERGIKYFMISYTDLFGAQRAKLVPAQAIADMQKDGAGFAGFATWLDLTPAHPDLFAVPDASSVIQLPWKKDVAWVAADCVMDDKPVEQAPRVMLKKLVDEAASMGLRVKTGVEPEFFLISADGKTISDEFDTAEKPCYDQQALMRRYDVIAEICDHMLELGWKPYQNDHEDANGQFEMNWEYDDALKTADKHSFFKFMVKSVAEKHGLRATFMPKPFKGLTGNGCHAHISVWDNDGKVNAFADKAMPFGLSAKGKTFLGGIMKHASALAAVTNPTVNSYKRINAPRTVSGATWAPNTVTWTGNNRTHMVRVPGPGRFELRLPDGAVNPYLLQAIIIAAGLSGLKTNADPGPHYDIDMYREGHTVTDAPKLPLNLLDALRAYEADTELQQALGEEFSAAYLKLKHGEWTSYCSQFTPWEHQTTLDI	not soluble
MGSDKIHHHHHHMTQSFIVDEAFWQLFPEVEIAFLTAQDIDNHAKEQVPTDLLTTANHVAATKWVPNDPISQNTVVQDWRQAFQQFKTKKGARCAVENLLKRAKNGKGVGTINPVVDVYNSVSLEWAFPVAAEDMDQIKGDIHLTVAQGGERFRPIGEDDVETALPGEVIYRDAYDVISRCWAWRDSARVEATEATQNLLFYMENVNPQRHADHVAATAALRTRLHDYLGISTTLHVVTHDQPSVAFKD	not soluble
MGSDKIHHHHHHMTQSPDLQAVLDYADAHMNDSLARLFDLVRIPSVSTVPAHAGDCRAAAQWLSDQLNDLGFDASVRPTGGHPMVVAHQTDADGPHVLFYGHYDVQPVVPLELWKTDPFEPTLEPQPNGDTHITGRGASDDKGQLLTFIEACRAWKAVTGRLPIKVSMLFEGEEESGSQSLGPFLEQTAEELRADVMMVCDTDMWDRDTPAITTMLRGLVGEEFTITTADRDLHSGMFGNAARNALQVASDAIAGLRGPDGGVTLPGFYDGVEDLAPEIKAQWKSLPFDQEGFLSDVGLSLPAGEDAYSIMEQIWARPSCEIHGVIGGYTDEGFKTVIPAKATAKVSFRLVAGQDPARIREAFRAHIRAYVPKDCSVEFTSHGASPALSLPLDSPYLTATREALSQEWGTEAALAGTGGSIPIVGEFKRQLGMDTLLVGFARFDNRIHSPNEKYDLSSFTGGIRSFVRVLAALSEIEAAAAP	not soluble
MGSDKIHHHHHHMTQTSSPLRNRYEFLLLFDVENGNPNGDPDSGNAPRVDPEDGHGLVSDVALKRRVRNYVQAAGEQIFIQHGTNLNRPIFQAKQASGGGSKGKQDVDAARRWMCEHFYDVRTFGAVMSTGANAGQVRGPVQLTFARSLDPVFAIEASITRGAVAEDIKNAKTLDDFLNWEAQQDEDKLRTMGRKSLIPYGLFATKGFVSAHLAQGTGFSEADLKLLLEALLNMYEHDRSASKGLMSSRRLFVFRHVGTDSDPQQRARQAVLGCAPAHKLLDLGQVIEVRRKDEHKPARALSDYEVTVHLDRLPAGVELLDLDSWDEARYHDGWQSR	not soluble
MGSDKIHHHHHHMTQVPPSASPADLLAVLERIATALERQGAPAVPANSLDGADAFVWHAAESWLEPVCRVNRVDIALLQGIERQRQTLYDNTLRFAHGLPANNALLWGARGTGKSSLVKAVHASVNQALTAKGAAPVALVEIHREDIPTLPRLLRILAASGRPCLLFCDDLSFDGNDSSYKSLKAVLEGGIEGRPDTVIFYATSNRRHLLAREMVENEQSTALHAGEAVEEKVSLSDRFGLWLGFHNVDQPTYFDIVDGYARAYGLDIETEDLHREAREWSMARGSRSGRTAWQFIQDLAGRLGKTLE	not soluble
MGSDKIHHHHHHMTRTTLEAGVTRRDVLKVAGLTGLGAALYASGLERWLPRALTAEATNQVPFYGKYQAGILTPPQNHVQIVAFDVQTTRRDELIDLLKRWTRACARLTAGLPLGDSDSLYVPPEDTGEAEGLSASHLTFTFGCGHGLFADDRFEIGHKRPNLLRELPAFDLDQLDPKWAGGDLVVQICADDQQVVFHALRNLTRIGRGIVKIRWTQTGFQRSKAADATGGTPRNLFGFKDGTGNPDVSQPAIRNKHLFYQWQDGSPWMTNGSFLVVRRIQMHLEVWDRTILKEQERTFGRDRASGAPLGSKDEFASVTPSKRTARGEASLPKDSHTAVAHGSGEAQLLRRSYSYQAGINETTGALDAGLLFLSYQRSPEQFITIQRRLAASDRLNEYITHRGSALFACFGGIQKGGYIGDALFA	not soluble
MGSDKIHHHHHHMTSREDEIRDFLATHGYADWNRTPLAGDASSRRYQRLRSPTGAKAVLMDWSPEEGGDTQPFVDLAQYLRNLDISAPEIYAEEHARGLLLIEDLGDALFTEVINNDPAQEMPLYRAAVDLLIHLHDAQTPELARLDPETLSEMTRLAFSEYRYAILGDAAEDNRKRFEHRFAQILSAQLEGDMVFVHRDFHAQNLLWLPEREGLARVGVIDFQDAKLGHRAYDLVSLLQDARRDVPAQVEAQMIDHYIQATGVDESHFRSAYAVIAVQRNMRILGIFARLSQRFGKRHYIEFVPRVWAHFERGLAHPALASAAEEILNALPAPAPEVLERLRA	not soluble
MGSDKIHHHHHHMTSTVFAQSDDFTTWTKFKVNYKIDPRFSLLSNLEFRTKDDVSRMDRLGLAIGGEYRAYSFLKLEAGYETHFRNLGDSEWKFRHRYNFGATASFQYQWLKIALRERFQQTFDRGDSKARLRSRLKLAYAPEKGIVSPYFSIEIYQSLDDAPFWRADRMRYRPGVEIALAKRWALDIFYCYQYESPKGKHIAGVEIGYSF	not soluble
MGSDKIHHHHHHMTTAQHTVEKIGGTSMSNYEAVRDNIIIGKRKKSDLYQRIFVVSAYGGVTNELLEHKKTGEPGVYALFADAESDWAWGDDLTKLIQLLTDINGELFADPMLKQQADQFITDRIEGVRGCLIDLQRLCSYGQFQLEEHLLTVREMLAGIGEAHSAFNTALKLQQEGINARFVDLTGWRDSELLPLDEKLKQAFDAIDLSRELPIVTGYAQCKEGLMRTFDRGYSEMTFSRTAVITNAREAIIHKEYHLSSADPNIVGEDKVVPLGRTNYDVADQLANLGMEAIHPRAGKGLRQNEIPLRVMNTFEPEHTGTLITGDYVSEKPQVEIVAGAKGVFAIEVFDQDMQGEPGSDRRILDVLSRFKVRFMSKDTNANTITHYVDTTLKHVKRVVKALEEEFPNAEISTRKVALVSAIGSDMKVPGILARSVKSLADNDISVLAIHQCMRQVDIQFVVDEDKYDQAIVALHGALIEPHNHEYAIVAASTTAG	not soluble
MGSDKIHHHHHHMTTFTAKFIDQEWEVPVESGRYHMIVGEFCPYAQRPQIARQLLGLDKHISISFVDDVPSDIGLIFSQPEQVTGAKSLRDIYHLTDPTYQGPYTIPILIDKTDNRIVCKESADLLRLFTTDFSDLHQEDAPVLFSQETASLIDNDIKDINKNFQSLMYKLAFLDKQADYDTYSKEFFTFLDQKEHLLGQRPFLLGDNLSEVDIHFFTPLVRWDIAGRDLLLLNQKALEDYPNIFSWAKTLYNDFNLKTLTNPQSIKNNYYLGKFGRAVRHHTIVPTGPNMAKWEK	not soluble
MGSDKIHHHHHHMTTLNAIFRPFIQPHRYKIAKGGRGSGKSWAIARLLVEIARRGTYRFLCAREFQASMADSVIQLIADTIQREGYLKEFEIQKAYIRHLAATDSLFMFYGIKNNVTKIKSLEGIDIAWVEEAEAVTKESWDILIPTIRKPGSEIWVSFNSKNILDDTYQRFVVNPPDDICLLTVHYTDNPHFPEVLRLEMEECKCKDYDLYLHIWEGQPVADSDLAIIKPLWIAAAVDAHMTLGFDAVGEKRLGFDVADEGKTATPCALCRAQSC	not soluble
MGSDKIHHHHHHMTTYRTVSIDGLDIFYREAGSRNNPTILLLHGFPTSSHMFRNLIPALADKFHLVAPDYPGYGNSSMPTVNEFDYTFDNLAEIVEKFIAAIALKKYSLYVMDYGAPIGYRIAAKYPERVQSLIVQNGNAYEEGLREFWEPIKAYWQERSPENAEKLKYLVTLEATKWQYTNGVRNLEAISPDTWTMDQHFLDRPGNDEIQLALLYSYGTNPLLYPQWQEYFRNYQPPTLIVWGKNDYIFPADGAYPYQRDLKDVEFHLLDTGHFALEEDGDAIANYIDQFLTSRLQSIPV	not soluble
MGSDKIHHHHHHMTVLIVTFSNDNESIPLVIKEIEARGEKAFRFDTDRYPTEVKLDIYCGDTERVIITDGEQKLDLSEVSSVWYRRMRYGQKIPDSMDKQYRDASIQECRVTVRGMIASLPGFHFDQMANVDRANNKQLQLKVAKEVGLLTPRTLTSNNPEAVKKFAQDCPQGIITKMLSSFAIYDDQGRENVVFTTPITNDDLENMEGLCFCPMTFQENIPKALELRTTIVGHHVFTAAVDSQSLQGSTYDWRKEGKNLAKNWQPYNLPEDIEKKLLKLMANFGLKYGAIDIIVTPDGRHVFLEVNPVGEFFWMEIYPPYYPISQAIAEILLTHKS	not soluble
MGSDKIHHHHHHMTVNDKKRLAIIGGGPGGLAAARVFSQSLPNFEIEIFVKDYDIGGVWHYPEQKSDGRVMYDHLETNISKKLMQFSGFPFEENVPLYPSRRNIWEYLKAYYKTFIANKDAISIHFSTEVTYLKKKNSQWEITSKDELRTTKSDFDFVIVASGHYSVPKLPTNIAGLDLWFDNKGAFHSKDFKNCEFAREKVVIVVGNGSSGQDIANQLTTVAKKVYNSIKEPASNQLKAKLIETVQTIDSADWKNRSVTLSDGRVLQNIDYIIFATGYYYSFPFIEPSVRLEVLGEGVTGDKHSSVNLHNLWEHMIYVKDPTLSFILTPQLVIPFPLSELQAAIMVEVFCKSLPITTTFDSNACGTHNFPKERTWNTMQNYRNY	not soluble
MGSDKIHHHHHHMTYLVTGATGGLGGYALNYLKELVPMSDIYALVRSEEKGADLKAAGFNIRVGDYSDAESMKQAFVGIDRVLFVSGAPGNRQVEHENVVNAAKAAGVSYIAYTSFAGADKSTSALAEDHFFTEKVIEKSGIAHTFLRNNWYFENEMPMIGGALSAGKFVYAAENGKVGWALKREYAEVAAKAVAGADFPEILELSGPLMTYEELTKALKEATGKDFDVISSDDKGFVENLVSAGLPQPVAEMFLSFQHDIKNDQLDVTSDDFEKALGKPLTNRVDALRELLK	not soluble
MGSDKIHHHHHHMTYYESGLLRARWASWQDARAGRTAQANARWGWIKAPGERGPILWMQSFSDADQQRLGIELAKAMAEKRRDLRMVMTFETEYPALLEQHTEGAERLGYGFGPCDHPQAVGRMLERLTPLRYLALGRAPRPRLAAALGRRKIPAVLMAADPGLQIPAPLEAVYPRDARQAGAWAGRGVTEAVQEPVDFATLFTIAQVDPNFRAMISGTDEGLLWWAQGLSAAQWAGWRRAWAASPLSRHGLLFLGGTGAPTDLPRLSAWQRAPLPAGAVVVADDDRWYPALSAGAQAVHLQKASPMLQWQVYAGSRPISVSPGVTLNAAEPLDADTILTLEEPAQILDHWQALRGDAMAARQRGDATRRIFWQERRHAGERLPEFLQRVFDW	not soluble
MGSDKIHHHHHHMVAQIQELDALHWVKTRSSLDPNQSTFLTWTGKIYAFIPGEKRKLLFKMVGVSVSRCLPTDEGNWDFTSRELTYYLNPENDEILRKWENPWTGETVPVLHVANNPVQGHFQGKFPAQVEGETTTFVFDIFPTYPNPLAEETQFAEYSPYPTYQAAELFKLTVPTADLFNAELPAVSQLRLSWDRIGQWLPWMKMGDRPGNLIYSAFGSKVNGLTELPHILQEEINTRVPLYKQAPKTFSDGEDMTSWLYFQKHFQAYLAGDIFPLPADEEV	not soluble
